Test results published in patent US20150353628A1 (published 2015).

B1: murine m1B7 antibody (antibody, V domains shown)
VH: QVQLQQPGSELVRPGASVKLSCKASGYKFTSYWMHWVKQRPGQGLEWIGNIFPGSGSTNYDEKFNSKATLTVDTSSNTAYMQLSSLTSEDSAVYYCTRWLSGAYFDYWGQGTTLTVSS
VL: QIVLTQSPALMSASPGEKVTMTCSASSSVSFMYWYQQKPRSSPKPWIYLTSNLPSGVPARFSGSGSGTSYSLTISSMEAEDAATYYCQQWSSHPPTFGSGTKLEIK
notes: also called parental murine 1B7 antibody; mouse 1B7
B2: chimeric 1B7 antibody (antibody, V domains shown)
VH: B1 VH
VL: B1 VL
notes: also called ch1B7
B3: murine m11E6 antibody (antibody, V domains shown)
VH: EVKVVESGGGLVQPGGSLRLSCTTSGFTFTDYYVSWVRQPPGKALEWLGFIRNKVNGYTTEFSSSVKGRFTISRDNSQSILYLQMNTLRVEDSATYYCARVSYYGRGWYFDYWGQGTTLTVSS
VL: DIVMTQSTSSLSASLGDRVTISCRASQDIDNYLSWFQQKPDGTVKLLIYYTSRLHSGVPSRFSGSGSGTDYSLTISSLDQEDIATYFCQQGNTFPWTFGGGTKLEIK
notes: also called parental murine 11E6 antibody; mouse 11E6
B4: chimeric 11E6 antibody (antibody, V domains shown)
VH: B3 VH
VL: B3 VL
notes: also called ch11E6

Assays:
[1] = target: T1, pertussis toxin protein (Bordetella pertussis, UniProt P04977 35-269; P04978 28-226; P04979 29-227; P0A3R5 43-152; P04981 35-133); assay: ELISA, PTx coated, anti-mouse-HRP secondary
T1 construct: also called PTx; PT
Description: Specifically, the pertussis toxin protein was used for coating while anti-mouse-HRP or anti-human Fc-HRP were used as secondary antibodies. TMB(3,3′,5,5′-Tetramethylbenzidine) was used as substrate for the assay.

[2] = target: T1, pertussis toxin protein; assay: competition ELISA
[3] = target: T1, pertussis toxin protein; assay: pertussis toxin competition assay (ELISA read-out)

| Binder | EC50 [1] [pM] | Kd [2] [pM] | Kd [3] [pM] |
| --- | --- | --- | --- |
| B1 | 190 | 400 | 150 |
| B2 |  | 500 |  |
| B3 | 2700 | 5000 |  |
| B4 |  | 5000 |  |
